This note sets out measurements from paper PMC5805785, “Site-specific phosphorylation of TRANSPARENT TESTA GLABRA1 mediates carbon partitioning in Arabidopsis seeds” (Nature Communications, 2018).

The target in data set [1] is T1, MBP-TT2 (Arabidopsis thaliana) (UniProt Q9FJA2).
T1 sequence: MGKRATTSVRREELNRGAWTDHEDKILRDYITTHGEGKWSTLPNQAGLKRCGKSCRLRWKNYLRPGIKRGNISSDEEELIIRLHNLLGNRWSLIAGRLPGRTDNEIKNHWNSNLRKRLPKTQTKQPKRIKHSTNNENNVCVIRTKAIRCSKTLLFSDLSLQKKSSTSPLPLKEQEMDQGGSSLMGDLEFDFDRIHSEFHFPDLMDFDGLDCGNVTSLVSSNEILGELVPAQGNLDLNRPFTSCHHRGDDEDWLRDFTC
Kind of data set: EMSA. The following applies: LightShift Chemiluminescent EMSA kit (Pierce); buffer, salt, pH and temperature not stated.

Data set [2] concerns the target T2, MBP-TT2;MBP-TTG1 (Arabidopsis thaliana;Arabidopsis thaliana) (UniProt Q9FJA2+Q9XGN1).
T2 sequence 1: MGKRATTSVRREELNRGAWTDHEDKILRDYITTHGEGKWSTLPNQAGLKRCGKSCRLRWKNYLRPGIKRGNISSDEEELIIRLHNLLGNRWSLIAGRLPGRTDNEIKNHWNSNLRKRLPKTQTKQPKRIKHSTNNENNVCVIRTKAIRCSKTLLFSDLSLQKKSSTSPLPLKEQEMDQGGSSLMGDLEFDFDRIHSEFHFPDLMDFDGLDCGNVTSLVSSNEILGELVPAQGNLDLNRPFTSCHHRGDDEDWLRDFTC
T2 sequence 2: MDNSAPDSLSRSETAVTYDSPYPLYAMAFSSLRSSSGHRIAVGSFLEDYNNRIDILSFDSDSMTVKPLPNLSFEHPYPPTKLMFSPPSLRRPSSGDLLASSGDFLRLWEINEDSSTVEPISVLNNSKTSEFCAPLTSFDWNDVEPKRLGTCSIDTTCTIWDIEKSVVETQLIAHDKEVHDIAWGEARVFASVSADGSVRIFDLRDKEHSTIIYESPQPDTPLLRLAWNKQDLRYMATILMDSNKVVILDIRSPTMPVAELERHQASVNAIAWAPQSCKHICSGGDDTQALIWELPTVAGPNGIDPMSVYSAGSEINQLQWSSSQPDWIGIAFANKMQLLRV
Kind of data set: EMSA. To be noted: LightShift Chemiluminescent EMSA kit (Pierce); buffer, salt, pH and temperature not stated. A general note: A gel shift assay detects complexes by their altered migration in electrophoresis.

In data set [3] the target is T1, MBP-TT2 (Arabidopsis thaliana). Kind of data set: competition. To be noted: LightShift Chemiluminescent EMSA kit (Pierce); buffer, salt, pH and temperature not stated.
In data set [4] the target is T3, MBP-TTG1 (TRANSPARENT TESTA GLABRA1) (Arabidopsis thaliana, UniProt Q9XGN1 1-341).
T3 construct: TRANSPARENT TESTA GLABRA1 (TTG1), Arabidopsis thaliana, WD40 repeat protein; cDNA cloned into pMAL-c2x; also called recombinant MBP-TTG1; source: E. coli Rossetta (DE3), IPTG-induced, soluble fusion protein on amylose resin (methods); called 'in vitro-translated' in the results for the GST pull-down
T3 sequence (looked up): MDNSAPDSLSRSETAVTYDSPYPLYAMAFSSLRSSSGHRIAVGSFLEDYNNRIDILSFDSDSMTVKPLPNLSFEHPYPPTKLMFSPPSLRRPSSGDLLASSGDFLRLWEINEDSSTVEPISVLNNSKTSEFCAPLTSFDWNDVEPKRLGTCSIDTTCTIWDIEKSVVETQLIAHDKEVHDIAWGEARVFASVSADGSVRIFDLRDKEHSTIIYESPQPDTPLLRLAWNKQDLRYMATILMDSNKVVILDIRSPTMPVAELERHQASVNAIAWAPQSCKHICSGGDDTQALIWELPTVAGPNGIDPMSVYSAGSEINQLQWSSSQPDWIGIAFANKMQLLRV
Kind of data set: pull-down; MBP, MBP-TTG1, MBP-TTG1^S215E and MBP-TTG1^S215A on amylose beads as baits; TT2-His as prey, detected with anti-His. To be noted: both partners purified.

The next data set has as its target T4, MBP-TTG1^S215A (Arabidopsis thaliana, UniProt Q9XGN1 1-341, S215A).
T4 construct: TRANSPARENT TESTA GLABRA1 (TTG1), Arabidopsis thaliana; mutated cDNA cloned into pMAL-c2x; source: E. coli Rossetta (DE3), soluble fusion protein immobilized on amylose beads
T4 sequence (looked up): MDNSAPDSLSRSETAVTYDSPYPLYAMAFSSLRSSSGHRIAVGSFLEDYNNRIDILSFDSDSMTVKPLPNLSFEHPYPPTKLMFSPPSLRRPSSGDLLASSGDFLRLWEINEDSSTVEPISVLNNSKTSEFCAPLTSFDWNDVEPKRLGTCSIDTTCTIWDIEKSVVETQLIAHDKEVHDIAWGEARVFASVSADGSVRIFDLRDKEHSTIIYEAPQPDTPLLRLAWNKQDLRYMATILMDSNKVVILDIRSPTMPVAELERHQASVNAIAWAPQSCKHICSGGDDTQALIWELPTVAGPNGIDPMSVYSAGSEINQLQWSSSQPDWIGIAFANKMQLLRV
Described as above. The following applies: both partners purified.

Data set [5] addresses T3, MBP-TTG1 (TRANSPARENT TESTA GLABRA1). Kind of data set: native gel or EMSA; EMSA supershift: recombinant MBP-TT2 and MBP-TTG1 incubated together with the biotinylated native GL2 probe (AC-rich motif). To be noted: both partners purified.

Turning to “ATAATATATAAGGAAGAAGGAGTGCGAGGAGAAGAGGGAAGAGATCATAATTAAGCAAAGAAGCTAGCTAGGGACAGGATTTGTATGTCAATGGCCGTCGACATGTCTTCAAAAAAAAAAAAAAAAGACTTTTTCTCCTCTCCAGCCCTCTCTCTATCTCTCGTATACTACTCTCTCTTTTCTACATACATGTACTTGCTAGCTCTCACATAAACATATATT (double strand) [GL2 mutated probe]”, the binding entry in data set [1] is recorded as “no binding”.

For the molecule “ATAATATATAAGGAAGAAGGAGTGCGAGGAGAAGAGGGAAGAGATCATAATTAAGCAAAGAAGCTAGCTAGGGACAGGATTTGTATGTCAATGGCCGTCGACATGTCTTCCAAACAACCCACCAAAGACTTTTTCTCCTCTCCAGCCCTCTCTCTATCTCTCGTATACTACTCTCTCTTTTCTACATACATGTACTTGCTAGCTCTCACATAAACATATATT (double strand) [GL2 native probe]”, the binding entry in data set [1] and in data set [2] was “binds” each time.

Consider “ATAATATATAAGGAAGAAGGAGTGCGAGGAGAAGAGGGAAGAGATCATAATTAAGCAAAGAAGCTAGCTAGGGACAGGATTTGTATGTCAATGGCCGTCGACATGTCTTCCAAACAACCCACCAAAGACTTTTTCTCCTCTCCAGCCCTCTCTCTATCTCTCGTATACTACTCTCTCTTTTCTACATACATGTACTTGCTAGCTCTCACATAAACATATATT (double strand) [GL2 native competitor]”, for which the binding result in data set [3] is “binds”.

B1: TT2-His (natural protein, Arabidopsis thaliana, UniProt Q9FJA2 1-258, looked up)
chain: MGKRATTSVRREELNRGAWTDHEDKILRDYITTHGEGKWSTLPNQAGLKRCGKSCRLRWKNYLRPGIKRGNISSDEEELIIRLHNLLGNRWSLIAGRLPGRTDNEIKNHWNSNLRKRLPKTQTKQPKRIKHSTNNENNVCVIRTKAIRCSKTLLFSDLSLQKKSSTSPLPLKEQEMDQGGSSLMGDLEFDFDRIHSEFHFPDLMDFDGLDCGNVTSLVSSNEILGELVPAQGNLDLNRPFTSCHHRGDDEDWLRDFTC
notes: TRANSPARENT TESTA2 (TT2; MYB123), Arabidopsis thaliana; cDNA cloned into pET28a; also called MYB123; source: E. coli Rossetta (DE3), IPTG-induced, soluble fusion protein
On to B1, for which the binding result (in data set [4]; in the data set with MBP-TTG1^S215A) was “binds” in each case.

B2: MBP-TT2 (natural protein, Arabidopsis thaliana, UniProt Q9FJA2 1-258, looked up)
chain: MGKRATTSVRREELNRGAWTDHEDKILRDYITTHGEGKWSTLPNQAGLKRCGKSCRLRWKNYLRPGIKRGNISSDEEELIIRLHNLLGNRWSLIAGRLPGRTDNEIKNHWNSNLRKRLPKTQTKQPKRIKHSTNNENNVCVIRTKAIRCSKTLLFSDLSLQKKSSTSPLPLKEQEMDQGGSSLMGDLEFDFDRIHSEFHFPDLMDFDGLDCGNVTSLVSSNEILGELVPAQGNLDLNRPFTSCHHRGDDEDWLRDFTC
notes: TRANSPARENT TESTA2 (TT2; MYB123), Arabidopsis thaliana; cDNA cloned into pMAL-c2x; also called MYB123; source: E. coli Rossetta (DE3), recombinant protein produced as for the pull-down assay
For B2, in data set [5], the binding result was “binds”.
